The results in this text go back to the supplement of paper PMC7125110.

B1: glmS ribozyme (parent)
chain: AUAAAAGCGCCAGAACUACAGAAAUGUAGUUGACGAGGAGGAGGUUUAUCGAAUUUUCGGCGGAUGCCUCCAAA

Common to all, as to conditions: with glucosamine-6-phosphate
Variants of B1 are the subject of data set [1]. The data set is described as follows: kcat; higher = faster cleavage; RNA array. A digest of the protocol: (§1)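 Barcoded ribozyme variants were transcribed in situ on sequenced MiSeq chips by E. coli RNA polymerase. At 37 °C, a hybridised Cy3 probe tracked them while glucosamine-6-phosphate (40 μM to 10 mM) in HEPES/KCl/Mg(OAc)2 buffer flowed in and tiles were imaged over ~14 h. Per-tile medians of signals normalised to baseline and to non-cleaving reference variants were fit to one- or two-exponential decays, giving kobs. kcat and KM came from weighted Michaelis–Menten fits across concentrations.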

In data set [2] the parent is B1. The data set can be described thus: KM; higher = weaker cofactor use; RNA array. The method, boiled down:
as §1

The variants in data set [3] derive from B1. The data set can be described thus: self-cleavage kobs at 40 uM GlcN6P; higher = faster cleavage; RNA array. The method, boiled down: as §1
The variants in data set [4] derive from B1. The data set can be described thus: self-cleavage kobs at 160 uM GlcN6P; higher = faster cleavage; RNA array. A digest of the protocol: as §1
In data set [5] the parent is B1. The data set can be described thus: self-cleavage kobs at 640 uM GlcN6P; higher = faster cleavage; RNA array. The method, boiled down: as §1
Data set [6] covers variants of B1. The data set is described as follows: self-cleavage kobs at 2500 uM GlcN6P; higher = faster cleavage; RNA array. A digest of the protocol: as §1
The variants in data set [7] derive from B1. The data set can be described thus: self-cleavage kobs at 10000 uM GlcN6P; higher = faster cleavage; RNA array. A digest of the protocol:
as §1

± gives the standard error. For some of these results: Fewer inactive variants are shown than the library holds.

As a reminder, the kcat is the maximal rate divided by the concentration of active sites. By KM is commonly meant the concentration of substrate that gives half-maximal velocity.

As to C11U C71U, the turnover number (kcat) in data set [1] came out at 0.00111 ± 0.0002 s⁻¹. Also, the KM in data set [2] was determined as 1030 ± 320 µM. In data set [3], the “self-cleavage kobs at 40 uM GlcN6P” value turned out to be 0.000116 ± 4.3e-05 s⁻¹. Moreover, the “self-cleavage kobs at 160 uM GlcN6P” value in data set [4] was determined as 0.000143 ± 2.6e-05 s⁻¹. In addition, the “self-cleavage kobs at 640 uM GlcN6P” value in data set [5] was 0.000418 ± 7.1e-05 s⁻¹. In data set [6], the “self-cleavage kobs at 2500 uM GlcN6P” value is 0.000796 ± 0.00014 s⁻¹. In addition, in data set [7], the “self-cleavage kobs at 10000 uM GlcN6P” value came out at 0.00102 ± 0.0002 s⁻¹.

For the variant U30A U47C C70G, the turnover number (kcat) in data set [1] was found to be 4.3e-05 ± 6.7e-06 s⁻¹. The “self-cleavage kobs at 2500 uM GlcN6P” value in data set [6] was determined as 3.41e-05 ± 1.5e-05 s⁻¹. For the same variant, the “self-cleavage kobs at 10000 uM GlcN6P” value in data set [7] turned out to be 3.72e-05 ± 1.7e-05 s⁻¹.

Turning to A14C G66A, in data set [1], the catalytic constant (kcat) was 0.00362 ± 0.0004 s⁻¹. In addition, the KM in data set [2] worked out at 1940 ± 370 µM. In data set [3], the “self-cleavage kobs at 40 uM GlcN6P” value worked out at 7.72e-05 ± 1.3e-05 s⁻¹. Further, the “self-cleavage kobs at 640 uM GlcN6P” value in data set [5] was found to be 0.000879 ± 0.00024 s⁻¹. The “self-cleavage kobs at 2500 uM GlcN6P” value in data set [6] was 0.00158 ± 0.00047 s⁻¹. The “self-cleavage kobs at 10000 uM GlcN6P” value in data set [7] came out at 0.00316 ± 0.00037 s⁻¹.

As to C16U C68A, the turnover number (kcat) in data set [1] was 3.77e-05 ± 5.5e-06 s⁻¹. In addition, in data set [5], the “self-cleavage kobs at 640 uM GlcN6P” value worked out at 4.99e-05 ± 1.5e-05 s⁻¹. Moreover, the “self-cleavage kobs at 2500 uM GlcN6P” value in data set [6] worked out at 2.73e-05 ± 1.3e-05 s⁻¹. The “self-cleavage kobs at 10000 uM GlcN6P” value in data set [7] is 3.74e-05 ± 7.6e-06 s⁻¹.

G37C C67U: the turnover number (kcat) in data set [1] came to 2.86e-05 ± 3.3e-06 s⁻¹. Moreover, the “self-cleavage kobs at 2500 uM GlcN6P” value in data set [6] was found to be 2.85e-05 ± 1e-05 s⁻¹.

Regarding G13U G41C, the turnover number (kcat) in data set [1] was 0.000161 ± 1.8e-05 s⁻¹. In addition, the “self-cleavage kobs at 40 uM GlcN6P” value in data set [3] was below 1e-05 s⁻¹. Also, in data set [4], the “self-cleavage kobs at 160 uM GlcN6P” value was below 1e-05 s⁻¹. In addition, the “self-cleavage kobs at 640 uM GlcN6P” value in data set [5] was below 1e-05 s⁻¹.

In the case of G29C, the kcat in data set [1] came out at 0.0045 ± 0.0012 s⁻¹. In data set [2], the Michaelis-Menten constant (KM) was 2300 ± 720 µM. Moreover, the “self-cleavage kobs at 40 uM GlcN6P” value in data set [3] was determined as 8.88e-05 ± 1.6e-06 s⁻¹. The “self-cleavage kobs at 160 uM GlcN6P” value in data set [4] came out at 0.000212 ± 8.4e-06 s⁻¹. Moreover, the “self-cleavage kobs at 640 uM GlcN6P” value in data set [5] came to 0.000839 ± 4.1e-05 s⁻¹. Also, in data set [6], the “self-cleavage kobs at 2500 uM GlcN6P” value amounted to 0.00239 ± 0.0001 s⁻¹. Besides, in data set [7], the “self-cleavage kobs at 10000 uM GlcN6P” value was found to be 0.00377 ± 0.00011 s⁻¹.

In the case of C61U G66A, the kcat in data set [1] is below 1e-05 s⁻¹. Also, the “self-cleavage kobs at 640 uM GlcN6P” value in data set [5] is below 1e-05 s⁻¹.

With C16G A48G, the kcat in data set [1] is below 1e-05 s⁻¹. Moreover, the “self-cleavage kobs at 40 uM GlcN6P” value in data set [3] is below 1e-05 s⁻¹.

Consider G40A G41C A53G, for which the kcat in data set [1] amounted to 0.000315 ± 0.00011 s⁻¹. Further, in data set [2], the KM was found to be 3110 ± 1500 µM. In addition, in data set [5], the “self-cleavage kobs at 640 uM GlcN6P” value turned out to be 5.58e-05 ± 1.2e-05 s⁻¹. In addition, the “self-cleavage kobs at 2500 uM GlcN6P” value in data set [6] turned out to be 0.000139 ± 3.1e-05 s⁻¹.

With A12C G32C, in data set [1], the kcat was found to be 2.92e-05 ± 1.3e-06 s⁻¹. For the same variant, in data set [2], the KM came out at 3260 ± 500 µM. Moreover, in data set [3], the “self-cleavage kobs at 40 uM GlcN6P” value is below 1e-05 s⁻¹. Also, in data set [7], the “self-cleavage kobs at 10000 uM GlcN6P” value amounted to 2.2e-05 ± 6.6e-06 s⁻¹.

As for C16A U30A, in data set [1], the kcat is 0.00139 ± 0.00047 s⁻¹. Besides, the “self-cleavage kobs at 40 uM GlcN6P” value in data set [3] is 3.95e-05 ± 8.3e-06 s⁻¹. For the same variant, the “self-cleavage kobs at 160 uM GlcN6P” value in data set [4] was 0.000164 ± 3e-05 s⁻¹. Further, in data set [5], the “self-cleavage kobs at 640 uM GlcN6P” value worked out at 0.000316 ± 5.7e-05 s⁻¹. The “self-cleavage kobs at 2500 uM GlcN6P” value in data set [6] stood at 0.00154 ± 0.00022 s⁻¹. Moreover, the “self-cleavage kobs at 10000 uM GlcN6P” value in data set [7] is 0.00109 ± 0.00017 s⁻¹.

As for C10U U56C, the kcat in data set [1] stood at 2.01e-05 ± 2.1e-06 s⁻¹. The “self-cleavage kobs at 40 uM GlcN6P” value in data set [3] was below 1e-05 s⁻¹.

G9U U69G: the kcat in data set [1] came out at 1.33e-05 ± 5.4e-06 s⁻¹. In addition, the “self-cleavage kobs at 2500 uM GlcN6P” value in data set [6] was below 1e-05 s⁻¹. Also, the “self-cleavage kobs at 10000 uM GlcN6P” value in data set [7] was below 1e-05 s⁻¹.

Consider G63C C70U, for which the turnover number (kcat) in data set [1] was below 1e-05 s⁻¹. Further, the “self-cleavage kobs at 40 uM GlcN6P” value in data set [3] was below 1e-05 s⁻¹. Besides, in data set [6], the “self-cleavage kobs at 2500 uM GlcN6P” value was below 1e-05 s⁻¹.

As for C58A A64G, the kcat in data set [1] was found to be 0.000405 ± 6.2e-05 s⁻¹. The KM in data set [2] came out at 1920 ± 510 µM. The “self-cleavage kobs at 160 uM GlcN6P” value in data set [4] was 3.91e-05 ± 1.1e-05 s⁻¹. Further, the “self-cleavage kobs at 640 uM GlcN6P” value in data set [5] worked out at 0.0001 ± 1.5e-05 s⁻¹. Further, in data set [6], the “self-cleavage kobs at 2500 uM GlcN6P” value turned out to be 0.000214 ± 2.8e-05 s⁻¹. Also, the “self-cleavage kobs at 10000 uM GlcN6P” value in data set [7] stood at 0.000399 ± 8.1e-05 s⁻¹.

Turning to A6U U47A, in data set [1], the catalytic constant (kcat) stood at 0.000155 ± 3.1e-06 s⁻¹. The KM in data set [2] came out at 1890 ± 110 µM. For the same variant, in data set [5], the “self-cleavage kobs at 640 uM GlcN6P” value was found to be 3.88e-05 ± 9.8e-06 s⁻¹. For the same variant, in data set [6], the “self-cleavage kobs at 2500 uM GlcN6P” value came out at 8.84e-05 ± 1.2e-05 s⁻¹. For the same variant, the “self-cleavage kobs at 10000 uM GlcN6P” value in data set [7] amounted to 0.000131 ± 1.3e-05 s⁻¹.
